Source: PMC7715031

Molecular target: VISTA-Fc human recombinant protein (human), Q9H7M9
Assay: synchrotron radiation circular dichroism (SRCD) titration; fixed concentration of VISTA-Fc (or human Ig-Fc) and increasing concentrations of galectin-9, in solution; 23°C
Conditions: remark: other sources report otherwise

Kd: 18 nM
B1: human recombinant galectin-9, O00182 1-355 (ligand)
chain: MAFSGSQAPYLSPAVPFSGTIQGGLQDGLQITVNGTVLSSSGTRFAVNFQTGFSGNDIAFHFNPRFEDGGYVVCNTRQNGSWGPEERKTHMPFQKGMPFDLCFLVQSSDFKVMVNGILFVQYFHRVPFHRVDTISVNGSVQLSYISFQNPRTVPVQPAFSTVPFSQPVCFPPRPRGRRQKPPGVWPANPAPITQTVIHTVQSAPGQMFSTPAIPPMMYPHPAYPMPFITTILGGLYPSKSILLSGTVLPSAQRFHINLCSGNHIAFHLNPRFDENAVVRNTQIDNSWGSEERSLPRKMPFVRGQSFSVWILCEAHCLKVAVDGQHLFEYYHRLRNLPTINRLEVGGDIQLTHVQT
